The source of these data is the Immune Epitope Database (IEDB).

For experiment [1], the target named is HLA-A*01:01. In words: IEDB peptide-MHC binding, purified MHC/competitive/fluorescence; filed as Kd, often an IC50 or EC50 that approximates it; ≥ and ≤ were set here for values at or beyond the usual limits of such assays.
The target of a further experiment is HLA-A*26:01. Described as above.
For another experiment, the target named is HLA-B*39:01. Described as above.
The target of experiment [2] is HLA-A*02:01. The experiment is described as above.
A further experiment deals with HLA-A*69:01. Described as above.
Another experiment concerns the target HLA-B*57:01. Described as above.
Another experiment deals with HLA-B*18:01. Described as above.
A further experiment has as its target HLA-B*27:03. The experiment is described as above.
The target in a further experiment is HLA-B*46:01. The experiment is described as above.
Another experiment concerns the target HLA-B*51:01. Described as above.
Another experiment deals with HLA-B*15:17. Described as above.
The target in experiment [3] is HLA-A*03:01. In words: IEDB peptide-MHC binding, purified MHC/direct/fluorescence; filed as Kd, often an IC50 or EC50 that approximates it; ≥ and ≤ were set here for values at or beyond the usual limits of such assays.
The target of the next experiment is HLA-A*68:02. The description is as above.
Another experiment addresses HLA-A*02:03. The experiment is described as above.
For the next experiment, the target named is HLA-A*11:01. The description is as above. Conditions: source organism: Rickettsia sibirica 246.
Another experiment deals with HLA-A*02:12. The experiment is described as above.
The next experiment concerns the target HLA-A*02:19. The experiment is described as above.
The target of a further experiment is HLA-A*23:01. Described as above.
The next experiment deals with HLA-A*02:11. The description is as above.
The next experiment addresses HLA-A*02:16. The experiment is described as above.
A further experiment deals with HLA-A*24:03. The description is as above.
Another experiment deals with HLA-B*08:01. As to the kind of experiment: IEDB peptide-MHC binding, purified MHC/competitive/fluorescence; ≥ and ≤ were set here for values at or beyond the usual limits of such assays.
In experiment [4] the target is HLA-A*03:01. In words: IEDB peptide-MHC binding, purified MHC/competitive/fluorescence; filed as Kd, often an IC50 or EC50 that approximates it; ≥ and ≤ were set here for values at or beyond the usual limits of such assays. Conditions: source organism: Escherichia coli O157:H7 str. Sakai.
The next experiment has as its target HLA-B*07:02. In words: IEDB peptide-MHC binding, purified MHC/competitive/fluorescence; ≥ and ≤ were set here for values at or beyond the usual limits of such assays.
The next experiment deals with HLA-A*24:02. Described as above.
The target in experiment [5] is HLA-B*15:01. As to the kind of experiment: IEDB peptide-MHC binding, purified MHC/competitive/fluorescence; filed as Kd, often an IC50 or EC50 that approximates it; ≥ and ≤ were set here for values at or beyond the usual limits of such assays.
Experiment [6] concerns the target HLA-A*01:01. In words: IEDB peptide-MHC binding, purified MHC/direct/fluorescence; filed as Kd, often an IC50 or EC50 that approximates it; ≥ and ≤ were set here for values at or beyond the usual limits of such assays.
The target of experiment [7] is HLA-A*02:01. As to the kind of experiment: IEDB peptide-MHC binding, purified MHC/competitive/fluorescence; ≥ and ≤ were set here for values at or beyond the usual limits of such assays. The conditions noted are these: source organism: Zaire ebolavirus.
Another experiment concerns the target HLA-A*29:02. In words: IEDB peptide-MHC binding, purified MHC/direct/fluorescence; filed as Kd, often an IC50 or EC50 that approximates it; ≥ and ≤ were set here for values at or beyond the usual limits of such assays. The conditions noted are these: source organism: Zaire ebolavirus.
The target in experiment [8] is HLA-B*15:01. As to the kind of experiment: IEDB peptide-MHC binding, purified MHC/competitive/fluorescence; ≥ and ≤ were set here for values at or beyond the usual limits of such assays.
Where [9] appears, read: source organism: Escherichia coli.
[10] abbreviates: source organism: Rickettsia sibirica 246.
Where [11] appears, read: source organism: Bacillus anthracis str. A0488.
The mark [12] stands for this setting: source organism: Vaccinia virus.
Where [13] appears, read: source organism: Sudan ebolavirus.
Where [14] appears, read: source organism: Zaire ebolavirus.
Where [15] appears, read: source organism: Influenza A virus (A/Memphis/1/1978(H1N1)).
Setting [16] is: source organism: Influenza A virus H3N2.
Setting [17] is: source organism: Vaccinia virus Copenhagen.

For orientation: Kd means the concentration at which binding is half-saturated. Lower therefore signals a tighter complex. In the case of AAPLMQSLY, the Kd in the experiment with HLA-A*01:01 [1] (setting [9]) is not below 20000 nM; with HLA-A*26:01 (setting [9]) it was 1.33 µM.
Turning to SVANIDRIK, the Kd in the experiment with HLA-B*39:01 (setting [10]), with HLA-A*02:01 [2] (setting [10]), in the experiment with HLA-A*69:01 (setting [10]), with HLA-B*57:01 (setting [10]), with HLA-B*18:01 (setting [10]) and with HLA-B*27:03 (setting [10]) was not below 20 µM in each case. The Kd in the experiment with HLA-B*46:01 (setting [10]), in the experiment with HLA-B*51:01 (setting [10]), with HLA-B*15:17 (setting [10]), with HLA-A*26:01 (setting [10]), with HLA-A*03:01 [3] (setting [10]) and with HLA-A*68:02 (setting [10]) was not below 20 µM each time. Besides, the Kd in the experiment with HLA-A*02:03 (setting [10]) was not below 20 µM; with HLA-A*11:01, 6 nM; in the experiment with HLA-A*02:12 (setting [10]), not below 20 µM; in the experiment with HLA-A*02:19 (setting [10]), not below 20 µM; in the experiment with HLA-A*23:01 (setting [10]), not below 20 µM; in the experiment with HLA-A*02:11 (setting [10]), not below 20 µM. Besides, the Kd with HLA-A*02:16 (setting [10]) and in the experiment with HLA-A*24:03 (setting [10]) was not below 20 µM in each case.
Take TLDSEDGLY: in the experiment with HLA-A*01:01 [1] (setting [11]), the Kd worked out at 1.6 nM.
The IC50 is the concentration needed to halve the response being measured. For YRNKPSIAT, the IC50 in the experiment with HLA-B*08:01 (setting [12]) was not below 130 µM.
Turning to GSQYVSLAY, the Kd in the experiment with HLA-A*03:01 [4] came out at 4.5 µM; in the experiment with HLA-A*01:01 [1] (source organism: Escherichia coli O157:H7 str. Sakai) it was 32.1 nM.
Take FLRYLLFGI: the IC50 was not below 1010 µM with HLA-B*07:02 (setting [12]), not below 193 µM with HLA-B*08:01 (setting [12]) and 16500 nM with HLA-A*24:02 (setting [12]).
Consider GFPRCRYVH, for which the values for the IC50 in the experiment with HLA-B*07:02 (setting [13]), with HLA-B*08:01 (setting [14]) and with HLA-A*24:02 (setting [13]) were not below 82.4 µM, 12.3 µM and 1220 nM, respectively.
With AVDADDSHF, the Kd with HLA-B*39:01 (setting [15]), in the experiment with HLA-B*15:01 [5] (setting [15]), with HLA-A*02:01 [2] (setting [15]), in the experiment with HLA-A*69:01 (setting [15]), with HLA-B*57:01 (setting [15]) and with HLA-B*18:01 (setting [15]) was not below 20 µM each time. Also, the Kd with HLA-B*27:03 (setting [15]), with HLA-B*46:01 (setting [15]), with HLA-B*51:01 (setting [15]), with HLA-B*15:17 (setting [15]), with HLA-A*26:01 (setting [15]) and with HLA-A*03:01 [3] (setting [16]) was not below 20 µM throughout. The Kd in the experiment with HLA-A*68:02 (setting [16]) was not below 20 µM; in the experiment with HLA-A*02:03 (setting [16]) it was not below 20 µM; with HLA-A*01:01 [6] (source organism: Influenza A virus (A/New York/140/1999(H3N2))) it was not below 20000 nM; in the experiment with HLA-A*02:12 (setting [16]), not below 20 µM; with HLA-A*02:19 (setting [16]), not below 20 µM; with HLA-A*23:01 (setting [16]) it was not below 20 µM. The Kd in the experiment with HLA-A*02:16 (setting [16]) and in the experiment with HLA-A*24:03 (setting [16]) was not below 20 µM each time.
As to ERLAKLTEA, the IC50 with HLA-B*08:01 (setting [14]) is not below 106 µM; with HLA-A*02:01 [7] it was not below 175 µM.
As to LLDNSMFTY, the Kd in the experiment with HLA-A*01:01 [1] (setting [11]) was 3.8 nM.
With LSDAIFDDL, the dissociation constant (Kd) in the experiment with HLA-B*39:01 (setting [14]), with HLA-B*15:01 [5] (setting [14]), with HLA-A*02:01 [2] (setting [14]), with HLA-A*69:01 (setting [14]), with HLA-B*57:01 (setting [14]) and in the experiment with HLA-B*18:01 (setting [14]) was not below 20 µM throughout. In addition, the Kd in the experiment with HLA-B*27:03 (setting [14]), with HLA-B*46:01 (setting [14]), in the experiment with HLA-B*51:01 (setting [14]), with HLA-B*15:17 (setting [14]), with HLA-A*26:01 (setting [14]) and with HLA-A*03:01 [3] (setting [14]) was not below 20 µM each time. Moreover, the Kd with HLA-A*68:02 (setting [14]) was not below 20 µM; with HLA-A*02:03 (setting [14]), not below 20 µM; with HLA-A*29:02, not below 20 µM; in the experiment with HLA-A*01:01 [6] (source organism: Sudan ebolavirus - Maleo (1979)) it was 1850 nM; with HLA-A*02:12 (setting [14]), not below 20 µM; with HLA-A*02:19 (setting [14]), not below 20 µM. The Kd in the experiment with HLA-A*23:01 (setting [14]), with HLA-A*02:11 (setting [14]), in the experiment with HLA-A*02:16 (setting [14]) and with HLA-A*24:03 (setting [14]) was not below 20 µM in each case.
For the sequence YANCSSISI, the IC50 in the experiment with HLA-B*07:02 (setting [17]) is not below 175 µM; with HLA-B*08:01 (setting [17]), not below 1080 µM; in the experiment with HLA-B*15:01 [8] (setting [17]) it was 24.8 µM; with HLA-A*24:02 (setting [17]), 1330 nM.
FLLIHQGMH: the IC50 in the experiment with HLA-B*08:01 (setting [14]) is not below 230 µM; with HLA-B*15:01 [8] (setting [14]) it was not below 230 µM; with HLA-A*02:01 [7], 9.52 µM.
FLLQRWGGT: the figures for the IC50 with HLA-B*08:01 (setting [14]) and with HLA-A*02:01 [7] were 6.33 µM and 8.24 µM, respectively.
In the case of EPPLVRHAC, the IC50 in the experiment with HLA-B*07:02 (setting [12]) is not below 162 µM; with HLA-B*08:01 (setting [12]), not below 521 µM.
